This note sets out measurements from patent US20250213684A1 (Novartis, published 2025).

Numbering of substitutions follows the chain as printed. “And” between values parts separate entries of the source, which are not always exact repeats. Identical values can stand only once.

The target in assay [1] is T1, human TIM-3 expressed on cells (human, UniProt Q8TDQ0 22-301).
T1 construct: also called huTIM-3; hTIM-3
The assay is described as follows: flow cytometry on cells expressing human TIM-3. In general terms: A flow cytometer gives signals particle by particle.

Assay [2] addresses T2, huTIM-3/his (human, UniProt Q8TDQ0 22-202).
T2 construct: also called hTIM-3/his antigen
The assay is described as follows: Biacore, 2nd antibody injection; 1st antibody (competitor) ABTIM3-hum21. For orientation: SPR reads the build-up and loss of mass on a sensor chip optically.

The target in assay [3] is T1, human TIM-3 expressed on cells. The assay is described as follows: flow cytometry competition on 300.19 hTIM-3 cells against PE-labelled ABTIM3-hum21.
The target in assay [4] is T3, TIM-3 (antigen; species and construct not stated for the assay) (UniProt Q8TDQ0 22-202, limits assumed). The assay is described as follows: SPR (Biacore), run of May 30, 2014.
In assay [5] the target is T3, TIM-3 (antigen; species and construct …). The assay is described as follows: SPR (Biacore), run of Apr. 29, 2014.
Assay [6] has the same target. The assay is described as follows: SPR (Biacore), run of May 1, 2014.
Assay [7] shares this target. The assay is described as follows: SPR (Biacore), run of Apr. 7, 2014.
Assay [8] shares this target. The assay is described as follows: FACS competition binding against the parent murine ABTIM3; cells not named on the sheet.
Assay [9] has as its target T2, huTIM-3/his. The assay is described as follows: Biacore, 2nd antibody injection; 1st antibody (competitor) huIgG1.
The target in assay [10] is T4, cynoTIM-3/Fc (cynomolgus monkey, UniProt A0A2K5U3G7 22-195).
T4 sequence: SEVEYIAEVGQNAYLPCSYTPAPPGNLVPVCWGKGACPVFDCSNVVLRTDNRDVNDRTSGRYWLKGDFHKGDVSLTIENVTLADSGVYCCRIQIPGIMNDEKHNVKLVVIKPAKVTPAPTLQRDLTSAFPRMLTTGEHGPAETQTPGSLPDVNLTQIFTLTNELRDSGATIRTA
Description: SPR (Biacore), run 1.

Assay [11] has as its target T2, huTIM-3/his. The assay is described as follows: SPR (Biacore), run 1.
Assay [12] concerns the target T1, human TIM-3 expressed on cells. Description: flow cytometry competition on 300.19 hTIM3 cells in presence of ABTIM3; signal is MFI of 0.51ug/ml 22C1-PE.
Assay [13] has as its target T5, ratTIM-3/Fc (rat, UniProt P0C0K5 22-194, limits assumed).
T5 construct: also called rat TIM-3/Fc protein
T5 sequence (looked up): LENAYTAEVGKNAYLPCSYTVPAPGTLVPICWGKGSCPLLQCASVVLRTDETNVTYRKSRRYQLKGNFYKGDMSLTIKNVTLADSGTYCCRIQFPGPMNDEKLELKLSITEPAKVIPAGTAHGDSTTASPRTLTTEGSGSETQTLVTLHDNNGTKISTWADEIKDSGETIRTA
The assay is described as follows: SPR (Biacore), run 3.

The target in assay [14] is T4, cynoTIM-3/Fc. The assay is described as follows: SPR (Biacore), run 3.
Assay [15] addresses T2, huTIM-3/his. The assay is described as follows: SPR (Biacore), run 3.
The target of assay [16] is T4, cynoTIM-3/Fc. The assay is described as follows: SPR (Biacore), mean KD.
The target in assay [17] is T2, huTIM-3/his. Description: SPR (Biacore), mean KD.
Assay [18] concerns the target T1, human TIM-3 expressed on cells. Description: flow cytometry, 300.19 huTIM3 cells, detected by secondary Ab-FITC.
Assay [19] concerns the target T2, huTIM-3/his. Description: Biacore, 2nd antibody injection; 1st antibody (competitor) ABTIM3-hum03.
For assay [20], the target named is T4, cynoTIM-3/Fc. Description: SPR (Biacore), run 2.
Assay [21] concerns the target T2, huTIM-3/his. The assay is described as follows: SPR (Biacore), run 2.
Assay [22] deals with T4, cynoTIM-3/Fc. Description: SPR (Biacore), run 1; run 1 of three; cynoTIM-3/Fc.
Assay [23] addresses T5, ratTIM-3/Fc. The assay is described as follows: SPR (Biacore), run 2.

B1: ABTIM3-hum21 (antibody, human IgG1, kappa)
heavy: not shown
light: DIVLTQSPDSLAVSLGERATINCRASESVEYYGTSLMQWYQQKPGQPPKLLIYAASNVESGVPDRFSGSGSGTDFTLTISSLQAEDVAVYYCQQSRKDPSTFGGGTKVEIKRTVAAPSVFIFPPSDEQLKSGTASVVCLLNNFYPREAKVQWKVDNALQSGNSQESVTEQDSKDSTYSLSSTLTLSKADYEKHKVYACEVTHQGLSSPVTKSFNRGEC
notes: Humanized
A word on the Kd: it is the equilibrium constant for the complex coming apart. High values mean lower affinity, low ones higher affinity. B1 returned an equilibrium dissociation constant (Kd) in assay [1] of 0.917 nM. The “change in RU” value in assay [2] amounted to 6.6 RU. In addition, in assay [3], the “IC50 (read off the curve)” value was around 0.4 µg/mL.

B2: ABTIM3-hum10 (antibody, human IgG4 S228P, kappa, V domains shown)
VH: EVQLVQSGAEVKKPGESLKISCKGSGYTFTSYNMHWVRQMPGKGLEWMGDIYPGNGDTSYNQKFKGQVTISADKSISTVYLQWSSLKASDTAMYYCARVGGAFPMDYWGQGTTVTVSS
VL: EIVLTQSPATLSLSPGERATLSCRASESVEYYGTSLMQWYQQKPGQAPRLLIYAASNVESGIPARFSGSGSGTDFTLTISSLEPEDIAVYFCQQSRKDPSTFGGGTKVEIKR
notes: Humanized
For the molecule B2, the Kd in assay [4] was found to be 0.107 nM.

B3: ABTIM3-hum12 (antibody, human IgG4 S228P, kappa, V domains shown)
VH: B2 VH
VL: AIQLTQSPSSLSASVGDRVTITCRASESVEYYGTSLMQWYQQKPGKAPKLLIYAASNVESGVPSRFSGSGSGTDFTLTISSLQPEDFATYFCQQSRKDPSTFGGGTKVEIKR
notes: Humanized
As for B3, binding in assay [4] was put at a Kd of 0.355 nM.

B4: ABTIM3-hum02 (antibody, human IgG4 S228P, kappa, V domains shown)
VH: QVQLVQSGAEVKKPGASVKVSCKASGYTFTSYNMHWVRQAPGQGLEWIGDIYPGSGDTSYNQKFKGRATMTADKSTSTVYMELSSLRSEDTAVYYCARVGGAFPMDYWGQGTLVTVSS
VL: DIVLTQSPDSLAVSLGERATINCRASESVEYYGTSLMQWYQQKPGQPPKLLIYAASNVESGVPDRFSGSGSGTDFTLTISSLQAEDVAVYYCQQSRKDPSTFGGGTKVEIKR
notes: Humanized
Regarding B4, the equilibrium dissociation constant (Kd) stood at 0.174 nM in assay [4], 0.308 nM in assay [5] and 0.269 nM in assay [6].

B5: ABTIM3-hum09 (antibody, human IgG4 S228P, kappa, V domains shown)
VH: B4 VH with A16S, I48M, S55N, A68V, M70I, L113T
VL: B2 VL
notes: Humanized
On to B5, for which, in assay [4], the Kd was determined as 0.161 nM.

B6: ABTIM3-hum07 (antibody, human IgG4 S228P, kappa, V domains shown)
VH: B4 VH with V37I, S55N, M70L
VL: B4 VL
notes: Humanized
Regarding B6, the dissociation constant Kd in assay [7] was determined as 0.135 nM; in [4] it was 0.196 nM; in assay [6], 0.199 nM. Moreover, the “IC50 (read off the curve)” value in assay [8] is around 0.2 µg/mL.

B7: ABTIM3-hum11 (antibody, human IgG4 S228P, kappa, V domains shown)
VH: B4 VH with A16S, I48M, S55N, A68V, M70I, L113T
VL: B3 VL
notes: Humanized; Immobilized on Protein G beads and cross-linked with DSS in the HDx-MS experiment
What is called EC50 (read off the curve) is the midpoint of the concentration-response curve. A low value points to higher potency in that assay. With B7, the “change in RU” value in assay [9] turned out to be 83.2 RU; in assay [2] it was 8.1 RU; in [19] it was 8.5 RU. The Kd in [10] worked out at 1.24 nM; in assay [11], 0.155 nM; in assay [1] it was 0.906 nM; in [4] it was 0.194 nM; in [13], 297 nM; in assay [14], 5.04 nM. For the same molecule, the Kd is 0.109 nM in [15]; 3.14 nM in [16]; 0.163 nM in assay [17]; 3.14 nM in [20]; 0.226 nM in assay [21]. Besides, the “IC50 (read off the curve)” value in assay [12] is around 0.2 µg/mL; in assay [3], around 0.4 µg/mL. In addition, the “EC50 (read off the curve)” value in assay [18] is around 0.1 µg/mL.

B8: ABTIM3-hum05 (antibody, human IgG4 S228P, kappa, V domains shown)
VH: B4 VH with V37I, M70L
VL: B4 VL with Y91F
notes: Humanized
As to B8, the results for the Kd in assay [4], in assay [5] and in assay [6] were 0.332 nM, 0.313 nM and 0.279 nM, respectively.

B9: ABTIM3-hum08 (antibody, human IgG4 S228P, kappa, V domains shown)
VH: B4 VH with S55N
VL: B4 VL with Y91F
notes: Humanized
Consider B9, for which the dissociation constant Kd stood at 0.123 nM in [7], 0.175 nM in assay [4] and 0.309 nM in assay [6]. Besides, in assay [8], the “IC50 (read off the curve)” value was around 0.2 µg/mL.

B10: ABTIM3-hum06 (antibody, human IgG4 S228P, kappa, V domains shown)
VH: B4 VH with V37I, S55Q, M70L
VL: B4 VL with Y91F
notes: Humanized
In the case of B10, the figures for the dissociation constant (Kd) in assay [4], in [5] and in assay [6] were 0.364 nM, 0.498 nM and 0.214 nM, respectively.

B11: ABTIM3-hum04 (antibody, human IgG4 S228P, kappa, V domains shown)
VH: B4 VH with V37I, S55N, M70L
VL: B4 VL with Y91F
notes: Humanized
As for B11, the Kd is 0.216 nM in assay [7] and 0.172 nM in [4]. In assay [8], the “IC50 (read off the curve)” value was around 0.2 µg/mL.

B12: ABTIM3-hum03 (antibody, human IgG4 S228P, kappa)
heavy: not shown
light: B1 light
notes: as for B7
As to B12, the equilibrium dissociation constant (Kd) in assay [22] amounted to 1.04 nM; in assay [14], 3.08 nM; in [16], 2.67 nM; in assay [23], 51 nM; in assay [20], 3.89 nM.

B13: ABTIM3-hum01 (antibody, human IgG4 S228P, kappa, V domains shown)
VH: B4 VH with S55N
VL: B4 VL
notes: Humanized
Regarding B13, the dissociation constant Kd was 0.103 nM in [7]; 0.23 nM and 0.193 nM in assay [4]; 0.114 nM in assay [6]. Besides, in assay [8], the “IC50 (read off the curve)” value is around 0.2 µg/mL.
